Reference: US20240409629A1 (CHIA TAI TIANQING PHARMACEUTICAL GROUP, published 2024)
Like-named read-outs stand apart in the source and are kept apart here.

Tests used:
human CLDN18.2 [1] = molecular target: human CLDN18.2 (human); experiment: cell-based or functional assay
human CLDN18.2 [2] = molecular target: human CLDN18.2 (human); experiment: cell-based or functional assay; remark: listed apart in the source
human CLDN18.2 [3] = molecular target: T1, human CLDN18.2 (human); experiment: FACS, NUGC-4 cells (natural CLDN18.2)
T1 construct: also called claudin18.2
Procedure: (§1) Based on the FACS method, the binding activity of anti-CLDN18.2 humanized antibodies for the cell lines KATOIII (Cell Bank of the Chinese Academy of Sciences) and NUGC-4 (Cell Bank of the Chinese Academy of Sciences) naturally expressing CLDN18.2 was analyzed. […] See Example 3 for the specific method.

human CLDN18.2 [4] = molecular target: T1, human CLDN18.2; experiment: cell-based or functional assay; remark: listed apart in the source
human CLDN18.2 [5] = molecular target: T1, human CLDN18.2; experiment: FACS, KATOIII cells (natural CLDN18.2)
Procedure: as §1

human CLDN18.2 [6] = molecular target: T1, human CLDN18.2; experiment: cell-based or functional assay; remark: listed apart in the source
human CLDN18.2 [7] = molecular target: T1, human CLDN18.2; experiment: FACS, KATOIII cells (natural CLDN18.2); remark: listed apart in the source
Procedure: as §1

human CLDN18.2 [8] = molecular target: T1, human CLDN18.2; experiment: FACS, NUGC-4 cells (natural CLDN18.2); remark: listed apart in the source
Procedure: as §1

human CLDN18.2 [9] = molecular target: T1, human CLDN18.2; experiment: cell-based or functional assay; remark: listed apart in the source
human CLDN18.2 [10] = molecular target: T1, human CLDN18.2; experiment: cell-based or functional assay; remark: listed apart in the source

Row | Binder | CDC EC50, NIH-3T3-CLDN18.2 target cells (human CLDN18.2 [1]) [nM] | ADCC EC50, PBMC effector cells, KATOIII target cells (human CLDN18.2 [2]) [nM] | ADCC EC50, PBMC effector cells, NIH-3T3-CLDN18.2 target cells (human CLDN18.2 [2]) [nM] | ADCC EC50, PBMC effector cells, NUGC-4 target cells (human CLDN18.2 [2]) [nM] | EC50 (human CLDN18.2 [3]) [nM] | ADCC EC50, Jurkat-CD16a v158-NFAT-luciferase effector cells, KATOIII target cells (human CLDN18.2 [4]) [nM] | ADCC EC50, Jurkat-CD16a v158-NFAT-luciferase effector cells, U2OS-CLDN18.2 target cells (human CLDN18.2 [4]) [nM] | EC50 (human CLDN18.2 [5]) [nM] | ADCC EC50, PBMC effector cells, KATOIII target cells (human CLDN18.2 [6]) [nM] | EC50 (human CLDN18.2 [7]) [nM] | EC50 (human CLDN18.2 [8]) [nM] | CDC EC50, NIH-3T3-CLDN18.2 target cells (human CLDN18.2 [9]) [nM] | ADCC EC50, Jurkat-CD16a v158-NFAT-luciferase effector cells, NIH-3T3-CLDN18.2 target cells (human CLDN18.2 [10]) [nM] | ADCC EC50, Jurkat-CD16a v158-NFAT-luciferase effector cells, NUGC-4 target cells (human CLDN18.2 [10]) [nM] | ADCC Maximum killing (%), PBMC effector cells, KATOIII target cells (human CLDN18.2 [2]) [%] | ADCC Maximum killing (%), PBMC effector cells, NIH-3T3-CLDN18.2 target cells (human CLDN18.2 [2]) [%] | ADCC Maximum killing (%), PBMC effector cells, NUGC-4 target cells (human CLDN18.2 [2]) [%] | ADCC Maximum killing (%), PBMC effector cells, KATOIII target cells (human CLDN18.2 [6]) [%]
1 | humanized antibody hz28G3-1.1 (antibody, human IgG1, kappa, V domains shown) VH: QVQLVQSGAEVKKPGASVKVSCKTSGYSFTDYLMLWVRQAPGQGLEWMGNINPYYGRTTYALKFKGRVTMTVDRSTSTVYMELSSLRSEDTAVYYCARDGYSLRNAMDYWGQGTLVTVSS VL: DIVMTQSPDSLAVSLGERATINCKSSQSLFNSGNQKNYLAWYQQKPGQPPKLLIYGASTRESGVPDRFSGSGSGTDFTLTISSLQAEDVAVYYCQNAHSYPYTFGQGTKVEIKR | 0.29 | 0.048 | 0.33 | 0.07 | 11.1 | 0.139 | 0.016 | 8.11 | – | – | – | – | – | – | 11.5 | 28.1 | 4.9 | –
2 | 15F9 (antibody, human IgG1, kappa, V domains shown) VH: QVQLVQSGSELKKPGASVKVSCKASGYTFTNYGINWVRQAPGQGLEWMGWINPNTGETTYAEEFKGRFVFSLDTSVSTAYLQISSLKAEDTAVYFCARLYYGNRFDSWGQGTLVTVSS VL: DIVMTQSPDSLAVSLGERATINCKSSQSLLNSGNQRNYLTWYQQKPGQPPKLLIYWASTRESGVPDRFSGSGSGTDFTLTISSLQAEDVAVYYCQNAYYYPLTFGGGTKVEIKR | 0.25 | 0.03 | 0.18 | 0.3 | – | – | – | – | ~0.0155 | – | – | – | – | – | 10.6 | 22.6 | 4.34 | 19.5
3 | humanized antibody hz40F6-1.3 (antibody, human IgG1, kappa, V domains shown) VH: QVQLVESGGGVVQPGRSLRLSCAASGFTLTSYGVYWVRQAPGKGLEWVAVVWAGGNTNYADALKGRFTISKDNSKSTLYLQMNSLRAEDTAVYYCARDRGRLLAMDYWGQGTLVTVSS VL: DIVMTQSPDSLAVSLGERATINCKSSQSLLNSGNQKNYLAWYQQKPGQPPKLLIYGASTRESGVPDRFTGSGSGTDFTLTISSLQAEDVAVYYCQNDHFFPFTFGQGTKVEIKR | – | – | – | – | – | – | – | – | – | 7.9 | 17.7 | 0.84 | 0.017 | 0.023 | – | – | – | –

Now from value to binder, other results behind:

Row | CDC EC50, NIH-3T3-CLDN18.2 target cells (human CLDN18.2 [1]) [nM] | ADCC EC50, PBMC effector cells, KATOIII target cells (human CLDN18.2 [2]) [nM] | ADCC EC50, PBMC effector cells, NIH-3T3-CLDN18.2 target cells (human CLDN18.2 [2]) [nM] | ADCC EC50, PBMC effector cells, NUGC-4 target cells (human CLDN18.2 [2]) [nM] | EC50 (human CLDN18.2 [3]) [nM] | ADCC EC50, Jurkat-CD16a v158-NFAT-luciferase effector cells, KATOIII target cells (human CLDN18.2 [4]) [nM] | ADCC EC50, Jurkat-CD16a v158-NFAT-luciferase effector cells, U2OS-CLDN18.2 target cells (human CLDN18.2 [4]) [nM] | EC50 (human CLDN18.2 [5]) [nM] | ADCC EC50, PBMC effector cells, KATOIII target cells (human CLDN18.2 [6]) [nM] | EC50 (human CLDN18.2 [7]) [nM] | EC50 (human CLDN18.2 [8]) [nM] | CDC EC50, NIH-3T3-CLDN18.2 target cells (human CLDN18.2 [9]) [nM] | ADCC EC50, Jurkat-CD16a v158-NFAT-luciferase effector cells, NIH-3T3-CLDN18.2 target cells (human CLDN18.2 [10]) [nM] | ADCC EC50, Jurkat-CD16a v158-NFAT-luciferase effector cells, NUGC-4 target cells (human CLDN18.2 [10]) [nM] | Binder | ADCC Maximum killing (%), PBMC effector cells, KATOIII target cells (human CLDN18.2 [2]) [%] | ADCC Maximum killing (%), PBMC effector cells, NIH-3T3-CLDN18.2 target cells (human CLDN18.2 [2]) [%] | ADCC Maximum killing (%), PBMC effector cells, NUGC-4 target cells (human CLDN18.2 [2]) [%] | ADCC Maximum killing (%), PBMC effector cells, KATOIII target cells (human CLDN18.2 [6]) [%]
4 | – | – | – | – | – | – | – | – | – | 8.77 | 18.7 | 3.8 | 0.012 | 0.149 | humanized antibody hz40F6-2.1 (antibody, human IgG1, kappa, V domains shown) VH: QVQLVESGGGVVQPGRSLRLSCAASGFTLTSYGVYWVRQAPGKGLEWVAVVWAGGNTNYADSVKGRFTISKDNSKSTLYLQMNSLRAEDTAVYYCARDRGRLLAMDYWGQGTLVTVSS VL: DIVMTQSPDSLAVSLGERATINCKSSQSLLNSGNQKNYLAWYQQKPGQPPKLLIYGASTRESGVPDRFSGSGSGTDFTLTISSLQAEDVAVYYCQNDYFFPFTFGQGTKVEIKR | – | – | – | –
5 | – | – | – | – | – | – | – | – | – | 7.42 | 16 | 0.54 | 0.03 | 0.019 | humanized antibody hz40F6-1.2 (antibody, human IgG1, kappa, V domains shown) VH: QVQLVESGGGVVQPGRSLRLSCAASGFTLTSYGVYWVRQAPGKGLEWVAVVWAGGNTNYNSALMSRFTISKDNSKSTLYLQMNSLRAEDTAVYYCARDRGRLLAMDYWGQGTLVTVSS VL: DIVMTQSPDSLAVSLGERATINCKSSQSLLNSGNQKNYLAWYQQKPGQPPKLLIYGASTRESGVPDRFTGSGSGTDFTLTISSLQAEDVAVYYCQNDHFFPFTFGQGTKVEIKR | – | – | – | –
